The record followed here is a protein production outcome set (Wang et al. 2014).

The data set in a line: label from the status in PepcDB records.
Turning to “MWNYQKNILVCMIAGLGLSTCTPSDVSIPGAATIDVMNGFPDGESGYALGVSGCYAGKLGDFLLMAGGCNFPDKPVSEGGIKHYYKGIYIARVDDSSSLRWVKAGELPMEAAYGATVSLPDRLIFIGGSNSSDRFSSVLSFSFDCMKDSGLICETLPPLPHAVDNMSATLLGDTLYVLGGNRNGIPSSSMFSLCLDNYSAGWTEVPFPGRPRVQPVCSSLLGKLYVFGGFTSGGDASVSTDGLCYHPESGQWQVVKAPLTTKGEPLTLTGGASVSYGDVLLICAGGVNRDIFEDAISARYQMVRESEYLLQPIEWYRFNDQLLAYNVRSGEWIRIGVPSPMLARAGSSLVVFGDILFYIGGELKPGVRTPGICRISLQK”, the protein production entry was “failed”.

Regarding “MWSYDKITDYLMNNLGEKRYKHSLGVMDTAVRLAGIYNEDTEKARIAGLVHDCAKKLPGEKIIEICTNEGYELGDEDIRNSYLLHGLAGRILAKKVIGIDDEDVLNAIEFHTTGRPNMSLLEKIIYIADYIEPGREFKGVDELRKAADEDLNKALLMSFDNTIKFVIDKGGFLHHNTIEARNYLISRKG”, the protein production entry is “not failed”. Turning to “MWTRLLPFLAWLPGLHRGMLGREAWVGLNGAILALPQSMAYALIAGLPAEYGLYAAMLPVAIACLWGSSRYLVSGPTAAISVLLFSSVAPLAPLGSPQYVQAVLLLTFLAGAFQWLLGVLRVGSLVNFVSHSVMLGFTLGAALLIVLGQLPYLLGLAASGEGAAPGNGWRLLARFAEFDGPSLLVGGFSFALSLLVRRLRPRWPALLLGLLGGATLVWALPGTFASVAHVQALSSALPGWSPLVFDSRSILDLLPAAVACGMLGLVTSLSIARALAARQGDAFDANQEVRAQGLSNLLGPWLSASLSAGSFTRSGLNLEAGARSPLAGAFSALWVALLAVLGARLIEHVPLPAMAAGILLIAWGLIDRPALRALYRSGRAECLVAGLTALATLLLPLQNAIYAGVLASLVFYLRRTSTPRVLRQRNDEEEVLRIEGSIFFGACDYLQRLMRQCDRPRLVLDARQVNFIDFAGAVLLQQEARRLHAEGRRLVLRHARPQVREALGRQADEGCRLHYEG”, the protein production entry is on record as “failed”. In the case of “MWVYRLKGTLEALDPILPGLFDGGARGLWEREGEVWAFFPAPVDLPYEGVWEEVGDEDWLEAWRRDLKPALAPPFVVLAPWHTWEGAEIPLVIEPGMAFGTGHHETTRLALKALARHLRPGDKVLDLGTGSGVLAIAAEKLGGKALGVDIDPMVLPQAEANAKRNGVRPRFLEGSLEAALPFGPFDLLVANLYAELHAALAPRYREALVPGGRALLTGILKDRAPLVREAMAGAGFRPLEEAAEGEWVLLAYGR”, the protein production result is “not failed”. In the case of “MWWWSSSTKGRSNLERFLLGITPKPPSFSLPQEQGKEEIEYFRLGDLWDCYDEMSAYGFGTQVDLNNGETVMQYYVPYLSAIQIHTNKPALLSRNQNEVAESESSEGWSDSESEKLLSRSMSNDSSKTWDAVSEDSVFDPDGSPLLKDRLGNLDFKYIERDPPHKRIPLTDKINVLVEKYPGLMTLRSVDMSPASWMAVAWYPIYHIPTCRNEKDLTTGFLTYHTLSSSFQDNVVEGDQSNNNEETEFCEDSVINKRMPLPPFGVTTYKMQGDLWGKTGFDQDRLLYLQSAADSWLKQLNVDHHDYNFFLNSSF”, the protein production result is “failed”. On to “MYANKVKKIAAVHDLSGMGRVSLTVVIPILSSMGFQVCPLPTAVLSNHTQYPGFSFLDLTDEMPKIIAEWKKLEVQFDAIYTGYLGSPRQIQIVSDFIKDFRQPDSLIVADPVLGDNGRLYTNFDMEMVKEMRHLITKADVITPNLTELFYLLDEPYKADSTDEELKEYLRLLSDKGPQVVIITSVPVHDEPHKTSVYAYNRQGNRYWKVTCPYLPAHYPGTGDTFTSVITGSLMQGDSLPMALDRATQFILQGIRATFGYEYDNREGILLEKVLHNLDMPIQMASYELI”, for which the protein production result is reported as “not failed”. As to “MYDMLKFEFSDRFLLFSYFVLIMFIGSLLLMLPISWEGDGKLAYIDALFTAVSAVSITGLTTVKMEGFSTFGFILIMLLIQLGGLGFISITTFYLLIPKKKMNLTDARIIKQYSLSNIEYNPIRILKSILFITFSIEMIGLILILICFKLRGVNISFLEALFTTISAFCNAGFSMHSESIYAWRDVPEAIVVVSILIICGGLGFMVYRDVNNTIKNKKKLSLHAKIVFSLSFFLIIIGAILFFFTEMHKLKAGYSMSTLIFNSIFYSISTRTAGFNYLDNSLISGRTQIISLPFMFIGGAPGSTAGGIKITTFFLIVLAVVKNQNGNGYIIGSYKVSIDSIRFALLFFARAIFILSFSFFMLLFFEGGSGNWKVIDLGYEVFSAFGTVGLSVGVTQDLSFWGKVIIIFTMFAGRIGLFSMAVFVSRKSRFEEFTRPRQDILVG”, the protein production result is on record as “failed”.

“MYDYSILPNRIILCVDLRSFYASVSCIKMGLDPMHTKLAVVGDVNRNGSIVLAATPPLKALGVKKMARLYEIPRRKDILVVNPIMSTYIKCSNYITKLALQYVPIEDFHQYSIDEFFMDITDSIHLFAQDPYEFAMKFKREIYDHTRIECTIGIAPNPLMSKVALDIEAKKNKDGIAFWQYEDIPTKLWSIRPLNKFWGISYKTEEKLNRKGIYSIGDLANYPLKYLKQSFGKIGEELHLHSHGIDFSRISEKYVPATTSIGKSQILMRDYTIEEFPIILLEHIEEVCYRLRRQTKLAQTIHFSVGYSKSYTGGIRKTHTLNRPTNLTMDIYHICTYFLHQQYTGEPIRSINISLTNLIQEGEEQISLFDNVTKREQEMKLTKVMDEIRTKFGKNSILRGISYTHSATARHRNTLIGLEHHHHHH”: the protein production entry is recorded as “failed”. As to “MYEITATIVTYKNPDSVLLKAINSFLNTKLEVRLYIIDNSPTDYLKDISYDPRVEYIFMNSNNGFGAGHNVILRDPEKMGKYHLILNPDISFEEGTLEKLYDYMEGKLDVGNVMPKVIYPNGELQYLCKLLPTPKDWIVRMFLPIKSIKNRIDYNFEMKFADYDREMNIPYLSGCFMFLRKSVIEGIGVFDEGIFMYGEDTDLNRRIYRKYKTMYYPQVTITHHFEKGSHKSLRLLWIHVKAAIYYLNKWGWFFDKERSIINITVKQQYIRKLEHHHHHH”, the protein production entry was “not failed”. Regarding “MYELYTLLAEYYDTIYRRRIERVKAEIDFVEEIFKEDAKREVRRVLDLACGTGIPTLELAERGYEVVGLDLHEEMLRVARRKAKERNLKIEFLQGDVLEIAFKNEFDAVTMFFSTIMYFDEEDLRKLFSKVAEALKPGGVFITDFPCWFYGGRDGPVVWNEQKGEEKLVIMDWREVEPAVQKLRFKRLVQILRPNGEVKAFLVDDELNIYTPREVRLLAEKYFEKVKIYGNLKRELSPNDMRYWIVGIAKSF”, the protein production result was “not failed”.

Take “MYFCGIQNSTRTKGMNKAKSTMKLFGLIGLLILWNCSCVDRHRSHALCEQSLIDSLEVRAQDSLFSNLPYSRSLLRNAMRQAQDSMSYYRLMGLYGKTFFISSDFDSILYYNRPVKEYDKRAAACPRWNDVLSDVYNIEGNVWMQLNQPDSAVAYYEKSYAYRLKGEKGHLLSDICMNLADAHLHRGELAHTASYYRKALFICDSLHLSEHSKFPVYCGLGQTYMDLRDFDLSNHYYELAGQFFDEMTVSEKWVYLNNRGNHYYYKKDYQEALVYMRQAAELIADYPQMVFESNLSKVNLGDLYLLTNRLDSAENNLNEGYRYFSEIKNNSAMHYIETLMIELFLKKGNIARAREMIARTASTGHVDANMLTIRNQYLQHYYEKAGDYRNAYEYLKRDYQLNDSIRSERIRTRVAELDMRYRQDTIVLRKEMQIQRQAGEVRVLKLSMYIWVLVCLLLAAGTVVIIWYMRKKREFLRERFFQQINRVRMENLRSRISPHFTFNVLGREINQFNGSEEVKNNLMELVKYLRRSLELTEKLSVSLQDELDFVQSYIGLESGRVGEDFTASVVVEEGLDAKSIMIPSMIVQIPVENAIKHGLAGKDGEKELTIRISREGKGVRIVICDNGRGYLPQVASSTRGTGTGLKVLYQTIQLLNTKNKNEKIRFNIGNRNDGQTGTQVSVYIPFHFSYDL”: the protein production entry was “failed”. On to “MYFGQNEACKKNHVVIHNELGPGIDLNIACRQFSIERTPSMFHTLKYKDPFYIIEFEDNNQLPHGERWYCLLSHGTRPKYWYDIEVYRQGYYPSCGQLRSWIAKQDGIWFTRRYDSPPGHVLNWKIQ”, for which the protein production result is on record as “failed”. For the sequence “MYFLYVGIFGALGGMCRYAMNLWLGGGDFPSATLAVNLIGCFLLAFIMPFLAEKSRISLVLLNGIGTGFIGAFTTFSAFSVDTIELLQQGEVVLAISYILVSLIGGLVMVKFGRRFSNKLLRRGAHHVD”, the protein production entry is given as “failed”. For “MYINKFVPVYTLLILIYSFNASAEWTGDNTNAYYSDEVISELHVGQIDTSPYFCIKTVKANGSGTPVVACAVSKQSIWAPSFKELLDQARYFYSTGQSVRIHVQKNIWTYPLFVNTFSANALVGLSSCSATQCFGPK”, the protein production result is “failed”. Turning to “MYIPNAFRESDTHNLQEHMDKTRLAILVTQGDDGLHATHLPLLLRSDEGPYGTLYGHMAKANPQWQQLNADAEAMVIFPGEDAYVSPSFYPSKAEHGKVVPTWNYLAVHAYGQAECFTDPDRLHQLLNDLTDRHESSRAQPWSINDAPADYIAKMLGAIVGFSIPVQRLQGKRKLSQNRSAEDMAGVRDGLGASHLANDQQIARLMSGWRPS”, the protein production result was “not failed”. In the case of “MYKIVSDSACDLSKEYLEKHDVTIVPLSVSFDGETYYRDGVDITRDECYQRMVDDPKLFPKTSLPSVESYADVFRSFVEQGFPVVCFTITTLFSGSYNSAINAKSLVLEDYPDANICVIDSKQNTVTQALLIDQFVRMLEDGLSFEQAMSKLDALMASARIFFTVGSLDYLKMGGRIGKVATAATGKLGVKPVIIMKDGDIGLGGIGRNRNKLKNSVLQVAKKYLDENNKDNFIVSVGYGYDKEEGFEFMKEVESTLDVKLDSETNVAIGIVSAVHTGPYPIGLGVIRKYETL”, the protein production result is reported as “not failed”. Turning to “MYKKLILLFFILITFNLFSDEDVLVFYSQPSSIASKFVTGILQDSYGRIWFGTKEGLAYYDGIKYKNYEYIPFSKDSIQSSQIQCLYNDPRKAENGSDVFWIGTFYGVERFNVDTETFTHFDMTSSVVLCFLRDSHGRLWIGTLDGLYILNEDDGSVVKFSQASEFYIGNNGISHIYEDSEGRIYACTHEGLWEYDEPNKRFRRSRLFEKNSAVTDSIINNIFEEDGIYWVSVWDTGLFRIDPKNGKRDLFSFSNNKITCLSNEFSDNVLLIGTWGGGLISFDKNTYSYTEYTSKQRSYNLSNDFIFSIYVDTYGSLWVGTNGGGVNIYDTKRMWSKLILPHENKIDGRENSVSGLTKDKNGNLWISLLNNGITYYDLSTGKKKYYRYSESKIISNSVFKFYIDKNEDIWVGTDLGLCKYDKKKDAFVGVNLYNDNIIEDGERLIYNIISDDNEFLWIGTYDGGLIKFSPSSGILKRYKNDPKNPNSICSNLVFSLLIDSYKRLWVGTNKGLAEYKPSTDEFAIYRYDVNNRKGISSDRITSLFQDVSGKLWIGTSDGGINIFDTEKKEALNYTANEGLPANFIIGMTHMDNHSICVTAIKGMTIFNKDTEIIYSYTLYNHERRFTTVPIMIGDQCFVGTQEGVLGMDINYLLSFKRQEVPVKIRTIGINGNQTPVFKIDLQKTYKYKYSENNISFEFSSMDLSPLSRPSYIFMLEGFDKNWINANMKNYVQYTNLKPGKYTFKVKDISNPYPEPTSFTFIIEKPFWLSTPMIAVYILIFAGLTFLACRINRLFQYKIANKKLQQEQKDLISANEQLTVLSTVDELTGVGNRRQLDTVGKDLWRRGLDNKQPISLIMIDIDLFKQYNDLYGHQAGDNVLRTVAQTLQKKLRAKYDFVGRYGGEEFLVLLYNSSASETMKIAEKLRIEIKNLNIEHSAEKDKILTISLGAYTSVPNNELSYETMLSFADSALYKAKESGRDICKMYTE”, the protein production result was “failed”.
